Results taken from article PMC4753449, “Conformational plasticity of RepB, the replication initiator protein of promiscuous streptococcal plasmid pMV158” (Scientific Reports, 2016).

How the values were obtained:
[1] = biological target: the molecule itself; assay: AUC; sedimentation equilibrium, 20 °C, 20 mM NaH2PO4 pH 7.0, 150 mM NaCl; OBD 10-60 μM at 22,000 rpm, OD 10-100 μM at 13,000 rpm; single-species model
[2] = biological target: the molecule itself; assay: SAXS; free RepB in solution at 20, 40 and 83 μM RepB6 (12.1, 5.8 and 2.9 mg/mL); 10 mM TRIS pH 8.5, 5 mM EDTA, 1.0 M KCl

Protein	stoichiometry N [1]	stoichiometry N [2]
RepB OD (oligomerisation domain, residues 127 to 210) (domain or fragment, UniProt P13921 127-210, looked up, RepB of plasmid pMV158 (Streptococcus agalactiae), oligomerisation domain, residues 127 to 210; theoretical mass of the hexamer 58,300 Da; also called OD-only construct; OD hexamer; source: Escherichia coli M15, purified (Ni-NTA agarose), His-tag removed with TAGZyme; not shown: His6, N-terminal, cleaved) DIDRYVTLDVEEKTELFNVVVSLIRAYTLQNIFDLYDFIDENGETYGLTINLVNEVIAGKTGFMKLLFDGAYQRSKRGTKNEER	6	–
RepB, rolling-circle replication initiator protein of plasmid pMV158 (hexamer) (natural protein, UniProt P13921 1-210, looked up, RepB, replication initiator protein encoded by the promiscuous plasmid pMV158, originally isolated from Streptococcus agalactiae; 24 kDa polypeptide; OBD (N-terminal) and OD (C-terminal) domains; the OD construct ends at residue 210; The final model of 4U87 comprises residues 3-204 of three protomers in the asymmetric unit; also called RepB6; RepB hexamer) MAKEKARYFTFLLYPESIPSDWELKLETLGVPMAISPLHDKDKSSIKGQKYKKAHYHVLYIAKNPVTADSVRKKIKLLLGEKSLAMVQVVLNVENMYLYLTHESKDAIAKKKHVYDKADIKLINNFDIDRYVTLDVEEKTELFNVVVSLIRAYTLQNIFDLYDFIDENGETYGLTINLVNEVIAGKTGFMKLLFDGAYQRSKRGTKNEER	–	6
